Test results reported in patent US20080025968A1 (YEDA RESEARCH AND DEVELOPMENT, published 2008).

B1: C-terminal part of SIVA (amino acids 123-175 in SIVA1 or 58-110 in SIVA2), yeast two-hybrid clone (other)
chain: GKAVCGQCERALCGQCVRTCWGCGSVACTLCGLVDCSDMYEKVLCTSCAMFET
notes: Clone from a human bone marrow two-hybrid library; also called SIVA clone; C-terminal SIVA fragment; not shown: Gal4 fusion partner of the library clone / pGADT7 or pGBKT7 vector; not specified
B2: NF-κB2/p52, endogenous (other, human, UniProt Q00653 1-454, looked up)
chain: MESCYNPGLDGIIEYDDFKLNSSIVEPKEPAPETADGPYLVIVEQPKQRGFRFRYGCEGPSHGGLPGASSEKGRKTYPTVKICNYEGPAKIEVDLVTHSDPPRAHAHSLVGKQCSELGICAVSVGPKDMTAQFNNLGVLHVTKKNMMGTMIQKLQRQRLRSRPQGLTEAEQRELEQEAKELKKVMDLSIVRLRFSAFLRASDGSFSLPLKPVISQPIHDSKSPGASNLKISRMDKTAGSVRGGDEVYLLCDKVQKDDIEVRFYEDDENGWQAFGDFSPTDVHKQYAIVFRTPPYHKMKIERPVTVFLQLKRKRGGDVSDSKQFTYYPLVEDKEEVQRKRRKALPTFSQPFGGGSHMGGGSGGAAGGYGGAGGGGSLGFFPSSLAYSPYQSGAGPMGCYPGGGGGAQMAATVPSRDSGEEAAEPSAPSRTPQCEPQAPEMLQRAREYNARLFGLA
B3: RelB, endogenous (other, human, UniProt Q01201 1-579, looked up)
chain: MLRSGPASGPSVPTGRAMPSRRVARPPAAPELGALGSPDLSSLSLAVSRSTDELEIIDEYIKENGFGLDGGQPGPGEGLPRLVSRGAASLSTVTLGPVAPPATPPPWGCPLGRLVSPAPGPGPQPHLVITEQPKQRGMRFRYECEGRSAGSILGESSTEASKTLPAIELRDCGGLREVEVTACLVWKDWPHRVHPHSLVGKDCTDGICRVRLRPHVSPRHSFNNLGIQCVRKKEIEAAIERKIQLGIDPYNAGSLKNHQEVDMNVVRICFQASYRDQQGQMRRMDPVLSEPVYDKKSTNTSELRICRINKESGPCTGGEELYLLCDKVQKEDISVVFSRASWEGRADFSQADVHRQIAIVFKTPPYEDLEIVEPVTVNVFLQRLTDGVCSEPLPFTYLPRDHDSYGVDKKRKRGMPDVLGELNSSDPHGIESKRRKKKPAILDHFLPNHGSGPFLPPSALLPDPDFFSGTVSLPGLEPPGGPDLLDDGFAYDPTAPTLFTMLDLLPPAPPHASAVVCSGGAGAVVGETPGPEPLTLDSYQAPGPGDGGTASLVGSNMFPNHYREAAFGGGLLSPGPEAT
notes: mature
B4: IκBα, endogenous (other, human, UniProt P25963 1-317, looked up)
chain: MFQAAERPQEWAMEGPRDGLKKERLLDDRHDSGLDSMKDEEYEQMVKELQEIRLEPQEVPRGSEPWKQQLTEDGDSFLHLAIIHEEKALTMEVIRQVKGDLAFLNFQNNLQQTPLHLAVITNQPEIAEALLGAGCDPELRDFRGNTPLHLACEQGCLASVGVLTQSCTTPHLHSILKATNYNGHTCLHLASIHGYLGIVELLVSLGADVNAQEPCNGRTALHLAVDLQNPDLVSLLLKCGADVNRVTYQGYSPYQLTWGRPSTRIQQQLGQLTLENLQMLPESEDEESYDTESEFTEFTEDELPYDDCVFGGQRLTL
notes: mature

How the values were obtained:
[1] = biological target: T1, NIK 624-947 (C-terminal part of NIK), yeast two-hybrid construct (human, UniProt Q99558 624-947); assay: yeast two-hybrid, β-galactosidase colour assay in SFY526
T1 construct: Yeast two-hybrid construct used in the β-galactosidase assay in SFY526 yeast; also called C-terminally mutant (NIK 624-947); the C-terminal portion of NIK; not shown: Gal4 fusion partner from pGBKT7 or pGADT7
Description: FIG. 1a illustrates yeast two-hybrid binding assays of NIK to SIVA. The binding of NIK and its C-terminally mutant (NIK 624-947) to the C-terminal part of SIVA (amino acids 123-175 in SIVA1 or 58-110 in SIVA2) or TRAF2, was assessed using transformed SFY526 yeast. The development of a strong color reaction within 1 hour and 3 hours is indicted as ‘++’ and ‘+’, respectively; ‘−’ indicates no color development within 24 h.
A BamHI/XhoI digested NIK insert from the pcNIK vector was subcloned into BamHI/SalI sites of the Gal4 DNA-binding domain vector pGBKT7 (Clontech). A pre-transformed human bone marrow library (HL4053AH, Clontech) was subjected to two-hybrid screening using pGBKT7-NIK as the bait, according to the manufacturer's instructions (Yeast protocol handbook, Clontech—www.clontech.com) Positive clones were identified by quadruple selection and β-galactosidase activity assay. Binding of the SIVA clone to NIK and NIK624-947 was reconfirmed and binding of NIK to TRAF2 was assessed-by a β-galactosidase expression assay using the yeast SFY526 reporter strain (Clontech) and the pGBKT7 and pGADT7 vectors.

[2] = biological target: B3; assay: anti-RelB immunoprecipitation from nuclear extracts of Ramos cells, western blot
Description: (§1) FIG. 3g is an immunoprecipitation analysis with RelB of various NF-κB proteins from nuclear extracts of the Ramos cells, 15 minutes and 4 hours after the application of TNF or CD70 to the cells. Levels of p100, NS and p52 were detected by western blot analysis.
(§2) For immunoprecipitation of the NF-κB proteins, nuclear extracts from 10-20×10⁶ cells were diluted to achieve the following composition: 0.5% NP-40, 10 mM HEPES pH 7.9, 150 mM NaCl, 1 mM EDTA, 1 mM EGTA, 1 mM dithiothreitol (DTT), 1 mM PMSF, and 1× complete protease inhibitor cocktail. Anti-RelB antibody preadsorbed to protein-A-Sepharose beads (Amersham Biosciences) was incubated with precleared nuclear lysates for 2 hours at 4° C. The immunoprecipitates were analyzed by SDS-PAGE using 4-12% Bis-Tris NuPAGE gels (Invitrogen), and the gels were subjected to western blotting as described above.

[3] = biological target: T2, NF-κB2/p100, endogenous (human, UniProt Q00653 1-900); assay: as above
T2 construct: mature
T2 sequence (looked up): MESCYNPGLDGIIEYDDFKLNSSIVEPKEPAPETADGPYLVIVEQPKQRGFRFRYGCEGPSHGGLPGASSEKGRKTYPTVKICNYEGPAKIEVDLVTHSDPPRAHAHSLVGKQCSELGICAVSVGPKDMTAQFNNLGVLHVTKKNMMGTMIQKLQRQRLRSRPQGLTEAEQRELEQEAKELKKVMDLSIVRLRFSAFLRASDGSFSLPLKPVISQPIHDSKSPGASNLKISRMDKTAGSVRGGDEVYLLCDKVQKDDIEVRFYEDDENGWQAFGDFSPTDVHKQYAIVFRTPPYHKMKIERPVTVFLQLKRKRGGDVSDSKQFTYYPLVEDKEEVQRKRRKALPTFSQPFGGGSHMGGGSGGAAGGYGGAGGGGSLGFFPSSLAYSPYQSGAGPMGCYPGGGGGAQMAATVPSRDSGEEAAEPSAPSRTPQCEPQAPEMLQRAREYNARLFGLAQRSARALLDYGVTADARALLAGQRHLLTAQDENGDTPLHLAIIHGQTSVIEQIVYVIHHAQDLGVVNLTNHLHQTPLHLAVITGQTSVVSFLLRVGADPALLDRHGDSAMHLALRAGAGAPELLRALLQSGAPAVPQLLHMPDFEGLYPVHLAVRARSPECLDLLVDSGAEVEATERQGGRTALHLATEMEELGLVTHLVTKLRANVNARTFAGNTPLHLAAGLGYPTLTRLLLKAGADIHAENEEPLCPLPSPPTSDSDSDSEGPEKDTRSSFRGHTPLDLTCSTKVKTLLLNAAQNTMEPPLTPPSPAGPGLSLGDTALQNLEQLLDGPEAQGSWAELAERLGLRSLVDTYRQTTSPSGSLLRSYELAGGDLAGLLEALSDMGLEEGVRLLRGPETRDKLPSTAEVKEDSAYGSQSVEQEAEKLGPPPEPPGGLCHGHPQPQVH
Description: as §1, §2

[4] = biological target: T3, p55 TNF receptor, endogenous in Ramos cells (human, UniProt P19438 30-455); assay: western blot of the p55 TNF receptor complex from Ramos cells (FIG. 6a)
T3 construct: whole, on cells; TNF-receptor complex precipitated as described by Zhang et al., 2000
T3 sequence (looked up): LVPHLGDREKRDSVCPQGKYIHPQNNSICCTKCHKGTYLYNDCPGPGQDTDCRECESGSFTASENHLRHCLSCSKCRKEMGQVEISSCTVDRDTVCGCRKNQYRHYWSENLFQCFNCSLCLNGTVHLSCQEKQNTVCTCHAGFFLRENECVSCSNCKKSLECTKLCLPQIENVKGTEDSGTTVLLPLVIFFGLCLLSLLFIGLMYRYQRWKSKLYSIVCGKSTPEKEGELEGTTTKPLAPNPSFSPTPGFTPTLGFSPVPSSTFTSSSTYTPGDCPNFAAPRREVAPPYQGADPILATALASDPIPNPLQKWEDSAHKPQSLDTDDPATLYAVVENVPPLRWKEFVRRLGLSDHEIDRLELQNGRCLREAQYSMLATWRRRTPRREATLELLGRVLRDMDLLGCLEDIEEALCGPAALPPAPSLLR
Description: Transfections, immunoblotting and immunoprecipitations were performed as described in Example 2 and Example 3 of the Examples section. For immunoprecipitation of the CD70/CD27 ligand-receptor complexes from resting PBMC and Ramos cells, cell lysates were prepared as described for the kinase tests aforementioned and incubated for 4 hours at 4° C. with 25 μl of 50% M2-FLAG agarose beads per ml of lysate. The TNF-receptor complex was precipitated as described (Zhang et al., 2000). The signalosome from cell lysates was immunoprecipitated using a 1:1 mixture of two different antibodies against IKK1 (M-280 and H-744, Santa Cruz). Immunoprecipitation was allowed to continue for 2 hours at 4° C., using 10 μg of anti-IKKα antibodies adsorbed to 25 μl of 50% protein-A-Sepharose beads per ml of lysate.

T1 sequence (Q99558 624-947): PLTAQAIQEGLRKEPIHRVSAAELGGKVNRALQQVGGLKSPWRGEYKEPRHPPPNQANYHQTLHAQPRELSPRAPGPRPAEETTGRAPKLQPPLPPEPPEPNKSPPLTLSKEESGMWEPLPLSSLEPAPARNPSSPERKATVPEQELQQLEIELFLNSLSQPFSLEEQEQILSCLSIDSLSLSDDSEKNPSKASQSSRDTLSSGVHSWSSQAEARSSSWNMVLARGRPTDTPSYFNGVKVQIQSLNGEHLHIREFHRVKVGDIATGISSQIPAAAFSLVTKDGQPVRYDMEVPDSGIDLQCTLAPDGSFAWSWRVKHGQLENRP

B1: binds [1].

B2: binds [2].

B3: binds [3].

B4: binds [4].
